Results on 120 sequences are retold here after the supplement of paper PMC10126150.

± gives the standard deviation of the averaged measurements.

The test system of the data set is ATP. Description: switch fluorescence ratio, 500 uM ATP over buffer (Cy3 cluster intensity, sum of 5 cycles each) (fold (ratio)); higher = stronger signal-on switching upon ATP binding; sequences stand for … in TCGTCGGCAGCGTCAGATGTGTATAAGAGACAGTTTTTTTTTTTTTTTTTTTTTTTTT…TC. The settings on record: aptamer strand: ATP DNA aptamer (quencher-CACCTGGGGGAGTATTGCGGAGGAAGG + anchor), 100 nM annealed; ATP concentration: 500 uM. In outline: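 Per cluster, summed Cy3 intensity from the target cycles was divided by that from the buffer cycles to give the fluorescence ratio, then averaged per switch-domain sequence. Clusters outside 100-1000 RFU were excluded. The Cy3-labelled switching-strand clusters, on a modified Illumina MiSeq flow-cell, were annealed to 100 nM quencher-labelled ATP aptamer and imaged in selection buffer, then after 15 min with 500 uM ATP at 22 °C, for five cycles with NaOH stripping and re-annealing between them.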
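Further: ATP exposure 15 min at 22 °C before imaging.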

For TGGGGAATGT, the switch fluorescence ratio stood at 1.01 ± 0.042.

In the case of TGGGGAATTT, the switch fluorescence ratio is 0.987 ± 0.023.

In the case of TGGGGACACT, the switch fluorescence ratio stood at 1.02 ± 0.016.

As to TGGGGACGCT, the switch fluorescence ratio amounted to 0.9977 ± 0.004.

Consider TGGGGACGTG, for which the switch fluorescence ratio amounted to 1.013 ± 0.0047.

Turning to TGGGGACTTG, the switch fluorescence ratio worked out at 0.9782 ± 0.0015.

TGGGGAGGAG: the switch fluorescence ratio was 0.995 ± 0.017.

Turning to TGGGGAGGCA, the switch fluorescence ratio is 0.97516 ± 0.00042.

For the sequence TGGGGAGGGA, the switch fluorescence ratio amounted to 0.983 ± 0.033.

For TGGGGAGGGG, the switch fluorescence ratio worked out at 0.991 ± 0.047.

Regarding TGGGGATCGA, the switch fluorescence ratio turned out to be 1.04 ± 0.011.

Turning to TGGGGATTAG, the switch fluorescence ratio turned out to be 1.01 ± 0.033.

Consider TGGGGCACCG, for which the switch fluorescence ratio worked out at 0.994 ± 0.029.

With TGGGGCAGCA, the switch fluorescence ratio was found to be 1.01 ± 0.042.

Take TGGGGCAGCG: the switch fluorescence ratio came to 1.007 ± 0.0039.

TGGGGCCGAT: the switch fluorescence ratio was determined as 1.02 ± 0.021.

TGGGGCGCTA: the switch fluorescence ratio turned out to be 1.07 ± 0.11.

Regarding TGGGGCGTTT, the switch fluorescence ratio is 1.01 ± 0.022.

For TGGGGCTCTA, the switch fluorescence ratio was found to be 1.03 ± 0.033.

Take TGGGGCTTAT: the switch fluorescence ratio was determined as 0.987 ± 0.026.

With TGGGGCTTTT, the switch fluorescence ratio came out at 1.02 ± 0.053.

Regarding TGGGGGAATC, the switch fluorescence ratio was 1.02 ± 0.046.

TGGGGGAATG: the switch fluorescence ratio was found to be 0.992 ± 0.0027.

Regarding TGGGGGACAT, the switch fluorescence ratio turned out to be 1.01 ± 0.028.

Turning to TGGGGGATGG, the switch fluorescence ratio turned out to be 0.996 ± 0.057.

With TGGGGGCAGT, the switch fluorescence ratio came to 1.12 ± 0.066.

In the case of TGGGGGCTGG, the switch fluorescence ratio was determined as 0.991 ± 0.013.

Take TGGGGGG: the switch fluorescence ratio turned out to be 1.016 ± 0.0078.

Take TGGGGGGAAC: the switch fluorescence ratio was determined as 1.02 ± 0.019.

Regarding TGGGGGGAAG, the switch fluorescence ratio was found to be 0.994 ± 0.018.

As for TGGGGGGCGA, the switch fluorescence ratio worked out at 0.997 ± 0.011.

In the case of TGGGGGGCGC, the switch fluorescence ratio worked out at 0.989 ± 0.025.

TGGGGGGCGT: the switch fluorescence ratio came to 1.01 ± 0.043.

Take TGGGGGGGAG: the switch fluorescence ratio amounted to 0.996 ± 0.029.

Consider TGGGGGGGCC, for which the switch fluorescence ratio is 0.968 ± 0.0076.

Consider TGGGGGGTGG, for which the switch fluorescence ratio came to 1 ± 0.041.

For the sequence TGGGGGGTGT, the switch fluorescence ratio came out at 1.02 ± 0.069.

With TGGGGGTAAA, the switch fluorescence ratio worked out at 0.9997 ± 0.0091.

For TGGGGGTCCT, the switch fluorescence ratio stood at 1.01 ± 0.031.

For the sequence TGGGGTACAC, the switch fluorescence ratio turned out to be 0.993 ± 0.024.

Turning to TGGGGTACGA, the switch fluorescence ratio turned out to be 1.01 ± 0.026.

Turning to TGGGGTACGG, the switch fluorescence ratio came out at 1.004 ± 0.0064.

With TGGGGTACGT, the switch fluorescence ratio was 1.02 ± 0.013.

Take TGGGGTACTT: the switch fluorescence ratio is 0.973 ± 0.027.

For TGGGGTAGGT, the switch fluorescence ratio came out at 0.999 ± 0.011.

Regarding TGGGGTCAGG, the switch fluorescence ratio came to 1.016 ± 0.0086.

As to TGGGGTCTCT, the switch fluorescence ratio is 0.985 ± 0.042.

Take TGGGGTGATC: the switch fluorescence ratio is 1 ± 0.029.

For the sequence TGGGGTGCGA, the switch fluorescence ratio was 1.01 ± 0.042.

As to TGGGGTGGCA, the switch fluorescence ratio turned out to be 1.01 ± 0.045.

As to TGGGGTGGCT, the switch fluorescence ratio was determined as 0.985 ± 0.015.

With TGGGGTTCAC, the switch fluorescence ratio was 0.998 ± 0.018.

With TGGGGTTGAA, the switch fluorescence ratio was found to be 0.958 ± 0.022.

As to TGGGGTTTCG, the switch fluorescence ratio was 0.973 ± 0.038.

Regarding TGGGGTTTTG, the switch fluorescence ratio came to 0.979 ± 0.015.

Turning to TGGGTAAAGT, the switch fluorescence ratio turned out to be 0.971 ± 0.019.

Consider TGGGTAACTT, for which the switch fluorescence ratio was 1.1 ± 0.18.

Regarding TGGGTAAGTA, the switch fluorescence ratio is 0.993 ± 0.012.

TGGGTAAGTG: the switch fluorescence ratio worked out at 0.975 ± 0.022.

On to TGGGTACGCT, for which the switch fluorescence ratio stood at 1.01 ± 0.022.

TGGGTAGAAC: the switch fluorescence ratio is 1.12 ± 0.13.

Turning to TGGGTATATA, the switch fluorescence ratio stood at 1.03 ± 0.016.

Turning to TGGGTATGAA, the switch fluorescence ratio came out at 0.977 ± 0.019.

On to TGGGTATTCC, for which the switch fluorescence ratio came out at 1.021 ± 0.0085.

With TGGGTCAGGT, the switch fluorescence ratio stood at 0.9994 ± 0.0084.

Regarding TGGGTCGTGC, the switch fluorescence ratio amounted to 0.99 ± 0.011.

As to TGGGTCTACT, the switch fluorescence ratio is 0.9761 ± 0.0084.

For TGGGTCTAGT, the switch fluorescence ratio stood at 0.9975 ± 0.0042.

As for TGGGTGACGA, the switch fluorescence ratio stood at 1.01 ± 0.024.

Consider TGGGTGCAAA, for which the switch fluorescence ratio came out at 1.01 ± 0.033.

On to TGGGTGTAT, for which the switch fluorescence ratio was 1.01 ± 0.023.

On to TGGGTGTCAC, for which the switch fluorescence ratio worked out at 0.9868 ± 0.005.

Turning to TGGGTGTGTT, the switch fluorescence ratio was found to be 0.995 ± 0.028.

Take TGGGTTAGCG: the switch fluorescence ratio came out at 0.995 ± 0.041.

On to TGGGTTAGGT, for which the switch fluorescence ratio turned out to be 0.977 ± 0.022.

With TGGGTTAGTA, the switch fluorescence ratio is 0.984 ± 0.015.

Regarding TGGGTTATAT, the switch fluorescence ratio turned out to be 0.979 ± 0.011.

Turning to TGGGTTATGC, the switch fluorescence ratio stood at 0.984 ± 0.018.

Take TGGGTTATGT: the switch fluorescence ratio turned out to be 0.992 ± 0.019.

For TGGGTTCGGT, the switch fluorescence ratio was found to be 0.995 ± 0.0032.

On to TGGGTTCTGA, for which the switch fluorescence ratio stood at 0.98 ± 0.011.

As to TGGGTTGGAT, the switch fluorescence ratio stood at 0.99 ± 0.013.

Take TGGGTTTATT: the switch fluorescence ratio was determined as 0.984 ± 0.014.

With TGGGTTTCAG, the switch fluorescence ratio is 0.996 ± 0.05.

Regarding TGGGTTTTCA, the switch fluorescence ratio came out at 0.984 ± 0.016.

Take TGGGTTTTCT: the switch fluorescence ratio was found to be 1.08 ± 0.28.

For the sequence TGGGTTTTTA, the switch fluorescence ratio was determined as 0.9442 ± 0.0014.

In the case of TGGGTTTTTG, the switch fluorescence ratio was found to be 1.01 ± 0.039.

In the case of TGGTAAATCT, the switch fluorescence ratio was determined as 1 ± 0.036.

Consider TGGTAATATA, for which the switch fluorescence ratio stood at 1.02 ± 0.024.

In the case of TGGTAATATC, the switch fluorescence ratio came out at 1.012 ± 0.0024.

As for TGGTAATCAA, the switch fluorescence ratio turned out to be 1.01 ± 0.039.

As for TGGTACGGGG, the switch fluorescence ratio amounted to 1.02 ± 0.033.

As for TGGTACGGTC, the switch fluorescence ratio is 0.927 ± 0.041.

For the sequence TGGTAGAGAT, the switch fluorescence ratio turned out to be 1.01 ± 0.051.

TGGTAGGGTG: the switch fluorescence ratio was determined as 1.01 ± 0.034.

As for TGGTAGTAGG, the switch fluorescence ratio is 0.995 ± 0.017.

With TGGTAGTCGT, the switch fluorescence ratio is 0.994 ± 0.043.

Turning to TGGTAGTGAC, the switch fluorescence ratio amounted to 1.03 ± 0.064.

As for TGGTAGTTTT, the switch fluorescence ratio stood at 0.9899 ± 0.0078.

For TGGTATATT, the switch fluorescence ratio was 0.986 ± 0.027.

As to TGGTATTGTG, the switch fluorescence ratio came out at 0.947 ± 0.021.

In the case of TGGTATTTGG, the switch fluorescence ratio is 0.949 ± 0.046.

On to TGGTCAACTA, for which the switch fluorescence ratio was found to be 1 ± 0.02.

For TGGTCAGCTA, the switch fluorescence ratio was 1.02 ± 0.025.

For the sequence TGGTCCATGG, the switch fluorescence ratio turned out to be 1.008 ± 0.007.

As for TGGTCCATTT, the switch fluorescence ratio amounted to 1.014 ± 0.0091.

As for TGGTCCCGGA, the switch fluorescence ratio came to 1 ± 0.017.

Take TGGTCGGGGT: the switch fluorescence ratio was determined as 1.01 ± 0.013.

As to TGGTCGTCTT, the switch fluorescence ratio turned out to be 1.05 ± 0.035.

With TGGTCTATTT, the switch fluorescence ratio came out at 0.965 ± 0.019.

In the case of TGGTCTCTAA, the switch fluorescence ratio came out at 0.98 ± 0.01.

For the sequence TGGTCTTCCA, the switch fluorescence ratio came to 1.04 ± 0.013.

On to TGGTGAATTT, for which the switch fluorescence ratio amounted to 1.016 ± 0.0067.

As to TGGTGAGGCT, the switch fluorescence ratio was found to be 0.9694 ± 0.0037.

With TGGTGGCGGT, the switch fluorescence ratio came out at 1.01 ± 0.075.

For the sequence TGGTGGGAGG, the switch fluorescence ratio was found to be 1 ± 0.015.

For TGGTGGGGAG, the switch fluorescence ratio amounted to 1.01 ± 0.045.

Consider TGGTGGGGGG, for which the switch fluorescence ratio stood at 0.997 ± 0.037.

Take TGGTGGGGTG: the switch fluorescence ratio worked out at 0.986 ± 0.012.
